Data as given in patent publication US20190322705A1 (NORWEGIAN UNIVERSITY OF LIFE SCIENCES, published 2019).

Experiments:
Experiment in all cases: cell-based or functional assay
[1] = target: RseP of E. faecalis H22>A, expressed in S. pneumoniae ms3 (Enterococcus faecalis) (UniProt Q9RPP2)
[2] = target: RseP of E. faecalis LMGT3358 (WT rseP), expressed in S. pneumoniae ds220 (Enterococcus faecalis) (UniProt Q9RPP2)
[3] = target: RseP of E. faecalis Y24>A, expressed in S. pneumoniae ms4 (Enterococcus faecalis) (UniProt Q9RPP2)
[4] = target: RseP of E. faecalis H18>A, expressed in S. pneumoniae ms1 (Enterococcus faecalis) (UniProt Q9RPP2)
[5] = target: RseP of E. faecalis E19>A, expressed in S. pneumoniae ms2 (Enterococcus faecalis) (UniProt Q9RPP2)
[6] = target: RseP of E. faecalis HExxH>AAxxA, expressed in S. pneumoniae ms5 (Enterococcus faecalis) (UniProt Q9RPP2)
[7] = target: T1, RseP of E. faecalis HExxH>AAxxA, expressed in S. pneumoniae ms5 (Enterococcus faecalis, UniProt Q9RPP2 1-422)
T1 sequence: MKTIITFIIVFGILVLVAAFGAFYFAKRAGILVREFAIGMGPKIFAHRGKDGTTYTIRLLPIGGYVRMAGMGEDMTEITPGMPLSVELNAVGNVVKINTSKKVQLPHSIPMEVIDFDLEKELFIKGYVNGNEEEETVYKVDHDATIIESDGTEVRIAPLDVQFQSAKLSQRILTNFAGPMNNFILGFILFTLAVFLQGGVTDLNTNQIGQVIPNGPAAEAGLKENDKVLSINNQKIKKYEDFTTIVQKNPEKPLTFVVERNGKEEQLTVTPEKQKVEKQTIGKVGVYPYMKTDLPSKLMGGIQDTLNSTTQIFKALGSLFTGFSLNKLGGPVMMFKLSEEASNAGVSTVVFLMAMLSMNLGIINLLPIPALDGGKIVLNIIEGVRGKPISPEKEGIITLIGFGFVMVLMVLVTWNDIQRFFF

## LsbB (peptide)
[1]
  MIC (nM), S. pneumoniae ms3: > 7000 nM
[2]
  MIC (nM), S. pneumoniae ds220 induced: > 7000 nM
[3]
  MIC (nM), S. pneumoniae ms4: > 7000 nM
[4]
  MIC (nM), S. pneumoniae ms1: > 7000 nM
[5]
  MIC (nM), S. pneumoniae ms2: > 7000 nM
[6]
  MIC (nM), S. pneumoniae ms5: > 7000 nM

## MLAKIKAMIKKFPNPYTLAAKLTTYEINWYKQQYGRYPWERPVA [EntEJ97]
[7]
  fold resistance against the WT RseP strain: 30 times
